Reference: patent US20220381793A1, “COMPOSITIONS AND METHODS FOR IDENTIFYING MHC-II BINDING PEPTIDES” (priority 2021, published 2022)

Experiments:
[1] = biological target: T1, “empty” DR4 (DRA*01:01/DRB1*04:01) on yeast (Homo sapiens, UniProt P01903+P01911); test: RIPPA competition assay, yeast displaying “empty” DR4, SARS-CoV-2 S peptides; assay type: binding; details: 200 μM competitor vs 20 μM Bio-HA306-318, pH 5.0, 30° C., 20 hours
T1 construct: the α chain ectodomain, with or without the Jun motif, was designed to be secreted from yeast; the DR4 β chain ectodomain, with or without the Fos motif, was engineered to the upstream of yeast AGA2 gene; Syn-pre-pro leader (secretion leader) (N); expressed in transfected cells; host or cells: Saccharomyces cerevisiae EBY100, surface display via Aga1p/Aga2p

[2] = biological target: T2, “empty” DQ6 (DQA1*01:02/DQB1*06:02) on yeast (Homo sapiens, UniProt P01909+P01920); test: RIPPA competition assay, yeast displaying “empty” DQ6, HCRT 15-mer peptides; assay type: binding; details: for DQ6 binding (in words): method not given, possible false positives
T2 construct: A PCR fragment carrying the extracellular domain of HLA-DQA1*0102 with C-terminal Fos was cloned into ptDR1; A second PCR fragment carrying the extracellular domain of HLA-DQB1*0602 with C-terminal Jun was cloned into pDQ6α; Syn-pre-pro leader (secretion leader) (N); expressed in transfected cells; host or cells: Saccharomyces cerevisiae EBY100, surface display via Aga1p/Aga2p
Protocol: FIGS. 4A-4C. RIPPA identified all DQ6 binders from HCRT. FIG. 4A. Yeast expressing “empty” DQ6 was incubated with 20 μM HCRT1-13-Bio and 200 μM of the indicated non-biotinylated HCRT 15-mer peptide at pH 5.0, 30° C. for 20 hours and analyzed by flow cytometry. % Competition=100%−% binding (% binding as calculated in FIG. 3E). Error bars represent SEM from three independent experiments. Bolded letters denote previously identified 9-aa DQ6-binding registers^4, 5, 42: […], SSGAAAQPL, NHAAGILTL and NHAAGILTM, respectively. HCRT49-63 or HCRT81-95 covers <8 aa of the previously determined registers. Binding ranks for each HCRT peptide predicted by NetMHCIIpan-4.0 (trained on both elution and binding data) are shown as 100-% rank to the left. FIGS. 4B-4C. Correlation analysis for binding data acquired using “empty” DQ6 on yeast versus soluble CLIP/DQ6 protein (FIG. 4B) or versus NetMHCIIpan-4.0 prediction (FIG. 4C). Arrows indicate peptides that show binding in one method but not the other in the comparison. Open circles in FIG. 4B match open bars in FIG. 4A, indicating ligands identified by both empirical methods.
6×10^5 galactose-induced yeast were incubated at pH 5.0, 30° C. for 20 hours with 20 μM biotinylated indicator peptides in the presence of various concentrations of a competitor peptide to determine an appropriate competitor concentration for a competition assay. […] After incubation, the yeast cells were washed with PBS+1% BSA, stained with streptavidin-AF647 and analyzed by flow cytometry as described above. […]
Sufficient amounts of galactose-induced yeast cells displaying “empty” DQ6 were collected by centrifugation at 2,500 g for 3 min and resuspended in the 40 mM citrate buffer (pH 5.0) at a density of 1.5×10^4 cells μl^−1. […] DQ6-associated HCRT1-13-Bio was labeled with streptavidin-AF647 and analyzed by flow cytometry as described above. The binding of a competitor peptide to “empty” DQ6 on yeast was quantified as % competition=100%−[(MFIwith competitor−background)/(MFIwithout competitor−background)]×100%.

T2 sequence (P01909 with tags, fused parts or gaps with the stated changes): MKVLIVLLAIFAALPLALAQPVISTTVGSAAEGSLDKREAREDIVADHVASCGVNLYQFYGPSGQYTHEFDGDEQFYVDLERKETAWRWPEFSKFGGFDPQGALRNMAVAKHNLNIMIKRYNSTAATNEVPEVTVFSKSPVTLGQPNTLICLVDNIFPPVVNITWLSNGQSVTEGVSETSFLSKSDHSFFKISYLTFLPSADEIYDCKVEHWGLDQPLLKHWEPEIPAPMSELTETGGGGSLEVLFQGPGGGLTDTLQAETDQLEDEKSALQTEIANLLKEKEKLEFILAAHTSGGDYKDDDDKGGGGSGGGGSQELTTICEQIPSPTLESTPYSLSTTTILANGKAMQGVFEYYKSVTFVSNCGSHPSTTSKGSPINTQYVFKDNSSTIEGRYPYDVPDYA
T2 sequence (P01920 with tags, fused parts or gaps with the stated changes): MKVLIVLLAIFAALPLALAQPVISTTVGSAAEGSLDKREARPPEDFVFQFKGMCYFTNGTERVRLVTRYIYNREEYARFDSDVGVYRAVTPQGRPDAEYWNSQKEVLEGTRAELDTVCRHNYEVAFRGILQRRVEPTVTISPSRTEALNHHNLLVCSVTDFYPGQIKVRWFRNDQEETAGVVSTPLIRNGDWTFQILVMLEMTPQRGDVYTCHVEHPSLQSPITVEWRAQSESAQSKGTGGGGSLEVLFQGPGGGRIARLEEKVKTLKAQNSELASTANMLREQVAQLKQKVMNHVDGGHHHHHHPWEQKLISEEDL
T2 sequence (P32323 25-725 partner): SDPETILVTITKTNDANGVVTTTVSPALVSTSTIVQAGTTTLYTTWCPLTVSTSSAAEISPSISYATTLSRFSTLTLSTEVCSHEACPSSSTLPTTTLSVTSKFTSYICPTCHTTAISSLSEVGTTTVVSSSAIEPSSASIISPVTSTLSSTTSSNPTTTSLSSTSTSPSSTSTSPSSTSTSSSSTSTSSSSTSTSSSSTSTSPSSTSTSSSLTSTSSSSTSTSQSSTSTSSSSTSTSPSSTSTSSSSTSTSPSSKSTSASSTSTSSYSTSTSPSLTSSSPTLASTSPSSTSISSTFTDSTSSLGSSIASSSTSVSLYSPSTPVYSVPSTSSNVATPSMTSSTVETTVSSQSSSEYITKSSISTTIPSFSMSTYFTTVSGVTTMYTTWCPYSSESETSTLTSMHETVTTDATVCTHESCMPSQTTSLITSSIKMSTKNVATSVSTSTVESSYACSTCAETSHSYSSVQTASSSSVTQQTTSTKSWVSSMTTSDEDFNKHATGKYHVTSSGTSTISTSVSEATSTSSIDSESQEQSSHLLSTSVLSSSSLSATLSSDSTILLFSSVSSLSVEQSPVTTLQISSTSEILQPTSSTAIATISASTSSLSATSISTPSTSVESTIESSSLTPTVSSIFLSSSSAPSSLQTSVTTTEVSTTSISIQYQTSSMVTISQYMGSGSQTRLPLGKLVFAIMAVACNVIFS
T1 sequence (P01903 with tags, fused parts or gaps): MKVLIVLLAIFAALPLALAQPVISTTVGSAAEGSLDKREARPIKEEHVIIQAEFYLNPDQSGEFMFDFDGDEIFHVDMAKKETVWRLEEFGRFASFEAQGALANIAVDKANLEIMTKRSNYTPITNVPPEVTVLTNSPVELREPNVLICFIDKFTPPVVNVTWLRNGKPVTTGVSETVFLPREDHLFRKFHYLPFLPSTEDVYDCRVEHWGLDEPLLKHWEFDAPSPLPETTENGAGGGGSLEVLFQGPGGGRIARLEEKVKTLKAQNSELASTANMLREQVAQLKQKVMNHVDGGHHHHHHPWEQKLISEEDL
T1 sequence (P01911 with tags, fused parts or gaps with the stated changes): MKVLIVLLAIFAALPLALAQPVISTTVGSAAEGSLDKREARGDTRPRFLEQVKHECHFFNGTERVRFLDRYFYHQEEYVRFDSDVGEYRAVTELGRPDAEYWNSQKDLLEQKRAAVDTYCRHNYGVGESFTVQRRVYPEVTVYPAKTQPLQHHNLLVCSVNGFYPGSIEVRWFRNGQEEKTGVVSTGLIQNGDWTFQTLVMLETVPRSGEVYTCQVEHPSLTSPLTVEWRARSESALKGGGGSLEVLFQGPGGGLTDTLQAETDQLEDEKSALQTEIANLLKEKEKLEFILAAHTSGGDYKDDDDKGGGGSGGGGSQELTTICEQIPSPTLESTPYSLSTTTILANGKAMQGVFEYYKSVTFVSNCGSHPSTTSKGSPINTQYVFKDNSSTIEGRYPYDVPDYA
T1 sequence (P32323 25-725 partner): as the sequence (P32323 25-725 partner) above

5862-888: DR4 ligand peptide from the SARS-CoV-2 S protein (label probably misprinted) (PPLLTDEMIAQYTSALL)
% competition [1]: ~75%

HCRT49-63: 15-mer overlapping peptide derived from prepro-HCRT (hypocretin precursor) (LYELLHGAGNHAAGI; UniProt O43612 49-63, looked up, fragment)
DQ6 binding (in words) [2]: bound DQ6

HCRT81-95: 15-mer overlapping peptide derived from prepro-HCRT (hypocretin precursor) (QRLLQASGNHAAGIL; UniProt O43612 81-95, looked up, fragment)
DQ6 binding (in words) [2]: bound DQ6

HCRT89-103: 15-mer overlapping peptide derived from prepro-HCRT (hypocretin precursor) (NHAAGILTMGRRAGA)
% competition ([2]; 200 μM competitor vs 20 μM HCRT1-13-Bio, pH 5.0, 30° C., 20 hours): > 75%

S764-780: 17-mer overlapping peptide derived from the SARS-CoV-2 S protein (NRALTGIAVEQDKNTQE)
% competition [1]: < 50%

S1058-1074: 17-mer overlapping peptide derived from the SARS-CoV-2 S protein (HGVVFLHVTYVPAQEKN)
% competition [1]: ~75%
